{"source": "paper PMC10774645", "about": "“Characterization and stabilization of GluLm and its application to deglycosylate dietary flavonoids and lignans” (Applied Microbiology and Biotechnology, 2024)", "molecules": {"B1": {"name": "GluLm (Limosilactobacillus mucosae) (protein)", "chain": "MTKVDLNFVEGLTLEERADLVSGTDFWFTAKVSGMDPMLMTDGPSGLRKQVNVHSAMDQSIEAVCFPCSALTASSFDDQMLEKLGEQLGTAARAEKIGVLLGPGVNIKRSPLAGRNFEYFSEDPLLAGRMGTAYVKGVQSTGVGVSVKHFATNNREDQRFTNSSDVDERTLREIYLAQFERIVKQAHPATIMCSYNKLNGVQVSQNQRLLTNILRDEWGYQGLVMSDWGAVVDHTAAIKAGLDLEMPGKGDASKEEIIQAVKEGRLQESTLNRSALRVLEMAERYGHPKTPAPAYDMEAQHEFARQLADDSIVLLKNEKQELPLSDSAKLAVIGELAEKPRFEGGGSSHVNAHRVVTPKEVMPENAVYAQGYRLDSDQPDEQLTAEAMALAKNSDQVVFFAGFPEAMESEGFDKHSISLPANQNKLLEQLLTVNPHVVVVLQNGSAVEMPWEPETPAIVETYLAGEAVGEATWDILSGQVNPSGKLSETFPKRLADNPTYPTFGKDRRHEVYREGILMGYRYYDAKQLAVRFPFGHGLSYTTFAYQNLTIRENSDDVTVSFDLENTGSQAGKEVAQVYVANHASQTIMPIDELRDFVKVELQPGETKHLTLKLSRRAFAWYNSETETWEADNGQYEILVGSSSRDIRLRQEFELTIGTNPLGKITGETYVGELMENADERIKQIIAEMGLTATFDKFMSPELAPIFANIPLRSLTMADVDAETVHELLQKLNELD", "notes": "full-length, C-terminal poly-His tag (pLATE31), expressed in E. coli BL21(DE3), GraviTrap purified, 81 kDa"}}, "key": {"[1]": {"biological_target": "T1, GluLm (Limosilactobacillus mucosae, UniProt A0A508YIL6)", "T1 construct": "gene bglB; full-length, C-terminal poly-His tag (pLATE31), expressed in E. coli BL21(DE3), GraviTrap purified, 81 kDa", "T1 sequence (A0A508YIL6 1-735)": "B1 chain", "assay": "inhibition of pNPG hydrolysis, p-nitrophenol release at […] nm", "format": "biochemical", "settings": "100000 µM; free enzyme; 1 mmol L^−1 pNPG; 100 mmol L^−1 sodium phosphate pH 6.5; 37°C; 5 min"}, "[2]": {"substrate": "C[C@H]1O[C@@H](Oc2ccc([N+](=O)[O-])cc2)[C@H](O)[C@@H](O)[C@H]1O", "assay": "purified protein", "format": "biochemical, Limosilactobacillus mucosae", "settings": "free enzyme; 0.1 to 10 mmol L^−1 substrate; pH and temperature not restated for kinetics"}, "[3]": {"substrate": "O=[N+]([O-])c1ccc(O[C@@H]2O[C@H](CO)[C@@H](O)[C@H](O)[C@H]2O)cc1", "assay": "purified protein", "format": "biochemical, Limosilactobacillus mucosae", "settings": "free enzyme; 0.1 to 10 mmol L^−1 substrate; pH and temperature not restated for kinetics"}, "[4]": {"substrate": "O=[N+]([O-])c1ccc(O[C@@H]2OC[C@@H](O)[C@H](O)[C@H]2O)cc1", "assay": "purified protein", "format": "biochemical, Limosilactobacillus mucosae", "settings": "free enzyme; 0.1 to 10 mmol L^−1 substrate; pH and temperature not restated for kinetics"}, "[5]": {"substrate": "C[C@@H]1O[C@@H](Oc2ccc([N+](=O)[O-])cc2)[C@@H](O)[C@H](O)[C@@H]1O", "assay": "purified protein", "format": "biochemical, Limosilactobacillus mucosae", "settings": "free enzyme; 0.1 to 10 mmol L^−1 substrate; pH and temperature not restated for kinetics"}, "[6]": {"substrate": "O=[N+]([O-])c1ccc(O[C@@H]2O[C@H](CO)[C@H](O)[C@H](O)[C@H]2O)cc1", "assay": "purified protein", "format": "biochemical, Limosilactobacillus mucosae", "settings": "free enzyme; 0.1 to 10 mmol L^−1 substrate; pH and temperature not restated for kinetics"}}, "data": [{"molecule": "OC[C@H]1OC(O)[C@H](O)[C@@H](O)[C@@H]1O", "note": "(stereo partly drawn) [glucose]", "values": [{"measurement": "Relative activity (%)", "setting": "[1]", "value": "48.3 ± 5.7", "unit": "%"}]}, {"molecule": "B1", "values": [{"measurement": "Km", "setting": "[2]", "value": "1030 ± 40", "unit": "µM"}, {"measurement": "Vmax", "setting": "[2]", "value": 1.64, "unit": "µmol/min"}, {"measurement": "kcat", "setting": "[2]", "value": 223, "unit": "s⁻¹"}, {"measurement": "kcat/Km", "setting": "[2]", "value": 218000, "unit": "M⁻¹ s⁻¹"}, {"measurement": "Km", "setting": "[3]", "value": "100 ± 10", "unit": "µM"}, {"measurement": "Vmax", "setting": "[3]", "value": 33.8, "unit": "µmol/min"}, {"measurement": "kcat", "setting": "[3]", "value": 9120, "unit": "s⁻¹"}, {"measurement": "kcat/Km", "setting": "[3]", "value": "8.66e+07", "unit": "M⁻¹ s⁻¹"}, {"measurement": "Km", "setting": "[4]", "value": "760 ± 50", "unit": "µM"}, {"measurement": "Vmax", "setting": "[4]", "value": 4.07, "unit": "µmol/min"}, {"measurement": "kcat", "setting": "[4]", "value": 552, "unit": "s⁻¹"}, {"measurement": "kcat/Km", "setting": "[4]", "value": 729000, "unit": "M⁻¹ s⁻¹"}, {"measurement": "Km", "setting": "[5]", "value": "2820 ± 240", "unit": "µM"}, {"measurement": "Vmax", "setting": "[5]", "value": 0.06, "unit": "µmol/min"}, {"measurement": "kcat", "setting": "[5]", "value": 7.8, "unit": "s⁻¹"}, {"measurement": "kcat/Km", "setting": "[5]", "value": 2700, "unit": "M⁻¹ s⁻¹"}, {"measurement": "Km", "setting": "[6]", "value": "2810 ± 180", "unit": "µM"}, {"measurement": "Vmax", "setting": "[6]", "value": 0.86, "unit": "µmol/min"}, {"measurement": "kcat", "setting": "[6]", "value": 117, "unit": "s⁻¹"}, {"measurement": "kcat/Km", "setting": "[6]", "value": 41900, "unit": "M⁻¹ s⁻¹"}]}]}
